Legend:
[1] = biological target: biotinylated HA0 ectodomain of A/Panama/2007/1999 (H3N2) (Influenza A virus A/Panama/2007/1999 …, UniProt Q1K9M3, strain, biotin on the BirA biotinylation site); assay: BLI; conditions: both partners purified
[2] = biological target: T1, biotinylated HA0 ectodomain of A/Perth/16/2009 (H3N2) (Influenza A virus A/Perth/16/2009 (H3N2), UniProt C6KNH7, strain, biotin on the BirA biotinylation site); assay: BLI; conditions: both partners purified
[3] = biological target: T2, biotinylated HA0 ectodomain of A/Solomon Islands/3/2006 (H1N1) (Influenza A virus A/Solomon …, UniProt A7Y8I1, strain, biotin on the BirA biotinylation site); assay: BLI; conditions: both partners purified
[4] = biological target: biotinylated HA0 ectodomain of A/New Caledonia/20/1999 (H1N1) (Influenza A virus A/New …, UniProt Q6WG00, strain, biotin on the BirA biotinylation site); assay: BLI; conditions: both partners purified
[5] = biological target: biotinylated HA0 ectodomain of A/Beijing/262/1995 (H1N1) (Influenza A virus A/Beijing/262/1995 …, UniProt Q6WG01, strain, biotin on the BirA biotinylation site); assay: BLI; conditions: both partners purified
[6] = biological target: T1, biotinylated HA0 ectodomain of …; assay: yeast display selection (FACS) with next-generation sequencing; conditions: one partner purified
[7] = biological target: T2, biotinylated HA0 ectodomain of …; assay: as above; conditions: one partner purified
[8] = biological target: T1, biotinylated HA0 ectodomain of …; assay: BLI; conditions: one partner purified

Binder | binding result [6] | binding result [7] | further results
wild-type C05 Fab (VVSAGW), expressed in insect cells (Fab, V domains shown) VH: QVQLQESGGGLVQPGESLRLSCVGSGSSFGESTLSYYAVSWVRQAPGKGLEWLSIINAGGGDIDYADSVEGRFTISRDNSKETLYLQMTNLRVEDTGVYYCAKHMSMQQVVSAGWERADLVGDAFDVWGQGTMVTVSS VL: DIQLTQSPSSLSASVGDRVTLTCQASQDIRKFLNWYQQKPGKGPKLLIYDASNLQRGVPSRFSGGGSGTDFTLIISSLQPEDVGTYYCQQYDGLPFTFGGGTKVVIK |  |  | Kd [1]: 926 ± 12.1 nM; Kd [2]: 23.4 ± 0.1 nM; Kd [3]: 91.4 ± 0.9 nM; Kd [4]: 6.3 ± 0.1 nM; Kd [5]: 23.1 ± 0.6 nM
C05 Fab variant VPGAGW displayed on yeast (Fab, V domains shown) VH: QVQLQESGGGLVQPGESLRLSCVGSGSSFGESTLSYYAVSWVRQAPGKGLEWLSIINAGGGDIDYADSVEGRFTISRDNSKETLYLQMTNLRVEDTGVYYCAKHMSMQQVPGAGWERADLVGDAFDVWGQGTMVTVSS VL: DIQLTQSPSSLSASVGDRVTLTCQASQDIRKFLNWYQQKPGKGPKLLIYDASNLQRGVPSRFSGGGSGTDFTLIISSLQPEDVGTYYCQQYDGLPFTFGGGTKVVIK | binds | binds | 
C05 Fab variant YEPAGW displayed on yeast (Fab, V domains shown) VH: QVQLQESGGGLVQPGESLRLSCVGSGSSFGESTLSYYAVSWVRQAPGKGLEWLSIINAGGGDIDYADSVEGRFTISRDNSKETLYLQMTNLRVEDTGVYYCAKHMSMQQYEPAGWERADLVGDAFDVWGQGTMVTVSS VL: DIQLTQSPSSLSASVGDRVTLTCQASQDIRKFLNWYQQKPGKGPKLLIYDASNLQRGVPSRFSGGGSGTDFTLIISSLQPEDVGTYYCQQYDGLPFTFGGGTKVVIK | binds |  | 
C05 Fab variant VASAGW displayed on yeast (Fab, V domains shown) VH: QVQLQESGGGLVQPGESLRLSCVGSGSSFGESTLSYYAVSWVRQAPGKGLEWLSIINAGGGDIDYADSVEGRFTISRDNSKETLYLQMTNLRVEDTGVYYCAKHMSMQQVASAGWERADLVGDAFDVWGQGTMVTVSS VL: DIQLTQSPSSLSASVGDRVTLTCQASQDIRKFLNWYQQKPGKGPKLLIYDASNLQRGVPSRFSGGGSGTDFTLIISSLQPEDVGTYYCQQYDGLPFTFGGGTKVVIK | binds |  | 
C05 Fab variant VVGSGW displayed on yeast (Fab, V domains shown) VH: QVQLQESGGGLVQPGESLRLSCVGSGSSFGESTLSYYAVSWVRQAPGKGLEWLSIINAGGGDIDYADSVEGRFTISRDNSKETLYLQMTNLRVEDTGVYYCAKHMSMQQVVGSGWERADLVGDAFDVWGQGTMVTVSS VL: DIQLTQSPSSLSASVGDRVTLTCQASQDIRKFLNWYQQKPGKGPKLLIYDASNLQRGVPSRFSGGGSGTDFTLIISSLQPEDVGTYYCQQYDGLPFTFGGGTKVVIK | binds | binds | 
C05 Fab variant VASSGW displayed on yeast (Fab, V domains shown) VH: QVQLQESGGGLVQPGESLRLSCVGSGSSFGESTLSYYAVSWVRQAPGKGLEWLSIINAGGGDIDYADSVEGRFTISRDNSKETLYLQMTNLRVEDTGVYYCAKHMSMQQVASSGWERADLVGDAFDVWGQGTMVTVSS VL: DIQLTQSPSSLSASVGDRVTLTCQASQDIRKFLNWYQQKPGKGPKLLIYDASNLQRGVPSRFSGGGSGTDFTLIISSLQPEDVGTYYCQQYDGLPFTFGGGTKVVIK |  | binds | 
C05 Fab variant WYVHLW displayed on yeast (Fab, V domains shown) VH: QVQLQESGGGLVQPGESLRLSCVGSGSSFGESTLSYYAVSWVRQAPGKGLEWLSIINAGGGDIDYADSVEGRFTISRDNSKETLYLQMTNLRVEDTGVYYCAKHMSMQQWYVHLWERADLVGDAFDVWGQGTMVTVSS VL: DIQLTQSPSSLSASVGDRVTLTCQASQDIRKFLNWYQQKPGKGPKLLIYDASNLQRGVPSRFSGGGSGTDFTLIISSLQPEDVGTYYCQQYDGLPFTFGGGTKVVIK | binds |  | 
C05 Fab variant WPEIGF displayed on yeast (Fab, V domains shown) VH: QVQLQESGGGLVQPGESLRLSCVGSGSSFGESTLSYYAVSWVRQAPGKGLEWLSIINAGGGDIDYADSVEGRFTISRDNSKETLYLQMTNLRVEDTGVYYCAKHMSMQQWPEIGFERADLVGDAFDVWGQGTMVTVSS VL: DIQLTQSPSSLSASVGDRVTLTCQASQDIRKFLNWYQQKPGKGPKLLIYDASNLQRGVPSRFSGGGSGTDFTLIISSLQPEDVGTYYCQQYDGLPFTFGGGTKVVIK |  | binds | 
C05 Fab variant VATSGW displayed on yeast (Fab, V domains shown) VH: QVQLQESGGGLVQPGESLRLSCVGSGSSFGESTLSYYAVSWVRQAPGKGLEWLSIINAGGGDIDYADSVEGRFTISRDNSKETLYLQMTNLRVEDTGVYYCAKHMSMQQVATSGWERADLVGDAFDVWGQGTMVTVSS VL: DIQLTQSPSSLSASVGDRVTLTCQASQDIRKFLNWYQQKPGKGPKLLIYDASNLQRGVPSRFSGGGSGTDFTLIISSLQPEDVGTYYCQQYDGLPFTFGGGTKVVIK |  | binds | 
C05 Fab variant VEEAGW, in supernatant of transfected 293T cells (Fab, V domains shown, not shown: His6, C-terminal, kept) VH: QVQLQESGGGLVQPGESLRLSCVGSGSSFGESTLSYYAVSWVRQAPGKGLEWLSIINAGGGDIDYADSVEGRFTISRDNSKETLYLQMTNLRVEDTGVYYCAKHMSMQQVEEAGWERADLVGDAFDVWGQGTMVTVSS VL: DIQLTQSPSSLSASVGDRVTLTCQASQDIRKFLNWYQQKPGKGPKLLIYDASNLQRGVPSRFSGGGSGTDFTLIISSLQPEDVGTYYCQQYDGLPFTFGGGTKVVIK |  |  | binding result [8]: binds
C05 Fab variant LPGGGW displayed on yeast (Fab, V domains shown) VH: QVQLQESGGGLVQPGESLRLSCVGSGSSFGESTLSYYAVSWVRQAPGKGLEWLSIINAGGGDIDYADSVEGRFTISRDNSKETLYLQMTNLRVEDTGVYYCAKHMSMQQLPGGGWERADLVGDAFDVWGQGTMVTVSS VL: DIQLTQSPSSLSASVGDRVTLTCQASQDIRKFLNWYQQKPGKGPKLLIYDASNLQRGVPSRFSGGGSGTDFTLIISSLQPEDVGTYYCQQYDGLPFTFGGGTKVVIK | binds |  | 
C05 Fab variant VVDSGW displayed on yeast (Fab, V domains shown) VH: QVQLQESGGGLVQPGESLRLSCVGSGSSFGESTLSYYAVSWVRQAPGKGLEWLSIINAGGGDIDYADSVEGRFTISRDNSKETLYLQMTNLRVEDTGVYYCAKHMSMQQVVDSGWERADLVGDAFDVWGQGTMVTVSS VL: DIQLTQSPSSLSASVGDRVTLTCQASQDIRKFLNWYQQKPGKGPKLLIYDASNLQRGVPSRFSGGGSGTDFTLIISSLQPEDVGTYYCQQYDGLPFTFGGGTKVVIK | binds |  | 
C05 Fab variant LPSSGW displayed on yeast (Fab, V domains shown) VH: QVQLQESGGGLVQPGESLRLSCVGSGSSFGESTLSYYAVSWVRQAPGKGLEWLSIINAGGGDIDYADSVEGRFTISRDNSKETLYLQMTNLRVEDTGVYYCAKHMSMQQLPSSGWERADLVGDAFDVWGQGTMVTVSS VL: DIQLTQSPSSLSASVGDRVTLTCQASQDIRKFLNWYQQKPGKGPKLLIYDASNLQRGVPSRFSGGGSGTDFTLIISSLQPEDVGTYYCQQYDGLPFTFGGGTKVVIK |  | binds | 
C05 Fab variant VVDAGW, in supernatant of transfected 293T cells (Fab, V domains shown) VH: QVQLQESGGGLVQPGESLRLSCVGSGSSFGESTLSYYAVSWVRQAPGKGLEWLSIINAGGGDIDYADSVEGRFTISRDNSKETLYLQMTNLRVEDTGVYYCAKHMSMQQVVDAGWERADLVGDAFDVWGQGTMVTVSS VL: DIQLTQSPSSLSASVGDRVTLTCQASQDIRKFLNWYQQKPGKGPKLLIYDASNLQRGVPSRFSGGGSGTDFTLIISSLQPEDVGTYYCQQYDGLPFTFGGGTKVVIK |  |  | binding result [8]: binds
C05 Fab variant VVEAGW, in supernatant of transfected 293T cells (Fab, V domains shown) VH: QVQLQESGGGLVQPGESLRLSCVGSGSSFGESTLSYYAVSWVRQAPGKGLEWLSIINAGGGDIDYADSVEGRFTISRDNSKETLYLQMTNLRVEDTGVYYCAKHMSMQQVVEAGWERADLVGDAFDVWGQGTMVTVSS VL: DIQLTQSPSSLSASVGDRVTLTCQASQDIRKFLNWYQQKPGKGPKLLIYDASNLQRGVPSRFSGGGSGTDFTLIISSLQPEDVGTYYCQQYDGLPFTFGGGTKVVIK |  |  | binding result [8]: binds
C05 Fab variant YDPGGW displayed on yeast (Fab, V domains shown) VH: QVQLQESGGGLVQPGESLRLSCVGSGSSFGESTLSYYAVSWVRQAPGKGLEWLSIINAGGGDIDYADSVEGRFTISRDNSKETLYLQMTNLRVEDTGVYYCAKHMSMQQYDPGGWERADLVGDAFDVWGQGTMVTVSS VL: DIQLTQSPSSLSASVGDRVTLTCQASQDIRKFLNWYQQKPGKGPKLLIYDASNLQRGVPSRFSGGGSGTDFTLIISSLQPEDVGTYYCQQYDGLPFTFGGGTKVVIK | binds |  | 
C05 Fab variant VVDSGW, in supernatant of transfected 293T cells (Fab, V domains shown, not shown: His6, C-terminal, kept) VH: QVQLQESGGGLVQPGESLRLSCVGSGSSFGESTLSYYAVSWVRQAPGKGLEWLSIINAGGGDIDYADSVEGRFTISRDNSKETLYLQMTNLRVEDTGVYYCAKHMSMQQVVDSGWERADLVGDAFDVWGQGTMVTVSS VL: DIQLTQSPSSLSASVGDRVTLTCQASQDIRKFLNWYQQKPGKGPKLLIYDASNLQRGVPSRFSGGGSGTDFTLIISSLQPEDVGTYYCQQYDGLPFTFGGGTKVVIK |  |  | binding result [8]: binds
C05 Fab variant IPGSGW displayed on yeast (Fab, V domains shown) VH: QVQLQESGGGLVQPGESLRLSCVGSGSSFGESTLSYYAVSWVRQAPGKGLEWLSIINAGGGDIDYADSVEGRFTISRDNSKETLYLQMTNLRVEDTGVYYCAKHMSMQQIPGSGWERADLVGDAFDVWGQGTMVTVSS VL: DIQLTQSPSSLSASVGDRVTLTCQASQDIRKFLNWYQQKPGKGPKLLIYDASNLQRGVPSRFSGGGSGTDFTLIISSLQPEDVGTYYCQQYDGLPFTFGGGTKVVIK |  | binds | 
